Values belong to the binder of their own block, whether it stands above or below them. Numbered stars: 1 amine (or outer) side, 2 acyl side, 3 side chain; on linkers, the order of the positions; unused ones are H or OH. Square brackets hold non-standard residues; d marks the D form. Side chains are listed from the residue outwards. Ends that are not written are not given here. * marks the point of attachment. C18 diacid = O=C(O)CCCCCCCCCCCCCCCCC(=O)*; γGlu = O=C(O)[C@H](CCC(=O)[*:2])N[*:1]; AEEA = NCCOCCOCC(=O)O; Aib = CC(C)(N)C(=O)O
Molecular target: glucagon receptor (UniProt P47871 26-477, limits assumed)
Assay: cell-based or functional assay

Sequence of glucagon receptor (P47871 26-477 limits assumed): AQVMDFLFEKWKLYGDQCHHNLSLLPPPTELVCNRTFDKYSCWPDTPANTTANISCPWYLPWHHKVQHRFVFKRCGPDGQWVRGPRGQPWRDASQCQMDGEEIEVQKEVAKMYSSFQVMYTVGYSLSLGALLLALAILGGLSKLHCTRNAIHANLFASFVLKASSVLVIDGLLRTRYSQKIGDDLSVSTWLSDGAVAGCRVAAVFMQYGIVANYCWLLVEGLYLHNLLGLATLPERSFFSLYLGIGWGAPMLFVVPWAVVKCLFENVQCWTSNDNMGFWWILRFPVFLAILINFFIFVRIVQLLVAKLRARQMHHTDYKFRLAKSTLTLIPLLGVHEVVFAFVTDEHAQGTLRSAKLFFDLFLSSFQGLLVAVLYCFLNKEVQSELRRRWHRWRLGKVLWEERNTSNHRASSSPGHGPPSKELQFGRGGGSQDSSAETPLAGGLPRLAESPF

- Assay (I) Glucagon [EC50]: 0.033 nM
B1: N^ε24-([2-[2-[2-[[2-[2-[2-[[(4S)-5-hydroxy-4-[(18-hydroxy-18-oxooctadecanoyl)amino]-5-oxopentanoyl]amino]ethoxy]ethoxy]acetyl]amino]ethoxy]ethoxy]acetyl])[Lys^1 … (peptide)
peptide: HSQGTFTSDYSKYLDSKAAQEFVK([AEEA-AEEA-γGlu-C18 diacid])WLLNT-NH2
modifications: N-terminus assumed
SMILES: CC(C)C[C@H](NC(=O)[C@H](Cc1ccc(O)cc1)NC(=O)[C@H](CCCCN)NC(=O)[C@H](CO)NC(=O)[C@H](Cc1ccc(O)cc1)NC(=O)[C@H](CC(=O)O)NC(=O)[C@H](CO)NC(=O)[C@@H](NC(=O)[C@H](Cc1ccccc1)NC(=O)[C@@H](NC(=O)CNC(=O)[C@H](CCC(N)=O)NC(=O)[C@H](CO)NC(=O)[C@@H](N)Cc1c[nH]cn1)[C@@H](C)O)[C@@H](C)O)C(=O)N[C@@H](CC(=O)O)C(=O)N[C@@H](CO)C(=O)N[C@@H](CCCCN)C(=O)N[C@@H](C)C(=O)N[C@@H](C)C(=O)N[C@@H](CCC(N)=O)C(=O)N[C@@H](CCC(=O)O)C(=O)N[C@@H](Cc1ccccc1)C(=O)N[C@H](C(=O)N[C@@H](CCCCNC(=O)COCCOCCNC(=O)COCCOCCNC(=O)CC[C@H](NC(=O)CCCCCCCCCCCCCCCCC(=O)O)C(=O)O)C(=O)N[C@@H](Cc1c[nH]c2ccccc12)C(=O)N[C@@H](CC(C)C)C(=O)N[C@@H](CC(C)C)C(=O)N[C@@H](CC(N)=O)C(=O)N[C@H](C(N)=O)[C@@H](C)O)C(C)C

- Assay (I) Glucagon [EC50]: 0.007 nM
B2: N^ε16-([2-[2-[2-[[2-[2-[2-[[(4S)-5-hydroxy-4-[(18-hydroxy-18-oxooctadecanoyl)amino]-5-oxopentanoyl]amino]ethoxy]ethoxy]acetyl]amino]ethoxy]ethoxy]acetyl])[Aib^2 … (peptide)
peptide: H[Aib]QGTFTSDYSKYLDK([AEEA-AEEA-γGlu-C18 diacid])KRAQEFVQWLLNT-NH2
modifications: N-terminus assumed
SMILES: CC(C)C[C@H](NC(=O)[C@H](Cc1ccc(O)cc1)NC(=O)[C@H](CCCCN)NC(=O)[C@H](CO)NC(=O)[C@H](Cc1ccc(O)cc1)NC(=O)[C@H](CC(=O)O)NC(=O)[C@H](CO)NC(=O)[C@@H](NC(=O)[C@H](Cc1ccccc1)NC(=O)[C@@H](NC(=O)CNC(=O)[C@H](CCC(N)=O)NC(=O)C(C)(C)NC(=O)[C@@H](N)Cc1c[nH]cn1)[C@@H](C)O)[C@@H](C)O)C(=O)N[C@@H](CC(=O)O)C(=O)N[C@@H](CCCCNC(=O)COCCOCCNC(=O)COCCOCCNC(=O)CC[C@H](NC(=O)CCCCCCCCCCCCCCCCC(=O)O)C(=O)O)C(=O)N[C@@H](CCCCN)C(=O)N[C@@H](CCCNC(=N)N)C(=O)N[C@@H](C)C(=O)N[C@@H](CCC(N)=O)C(=O)N[C@@H](CCC(=O)O)C(=O)N[C@@H](Cc1ccccc1)C(=O)N[C@H](C(=O)N[C@@H](CCC(N)=O)C(=O)N[C@@H](Cc1c[nH]c2ccccc12)C(=O)N[C@@H](CC(C)C)C(=O)N[C@@H](CC(C)C)C(=O)N[C@@H](CC(N)=O)C(=O)N[C@H](C(N)=O)[C@@H](C)O)C(C)C

- Assay (I) Glucagon [EC50]: 0.942 nM
B3: (N^ε24-([2-[2-[2-[[2-[2-[2-[[(4S)-5-hydroxy-4-[(18-hydroxy-18-oxooctadecanoyl)amino]-5-oxopentanoyl]amino]ethoxy]ethoxy]acetyl]amino]ethoxy]ethoxy]acetyl])[Gln^ … (peptide)
peptide: HSQGTFTSDYSKYLDSQRAQDFVK([AEEA-AEEA-γGlu-C18 diacid])WLVKTGP-NH2
modifications: N-terminus assumed
SMILES: CC(C)C[C@H](NC(=O)[C@H](Cc1ccc(O)cc1)NC(=O)[C@H](CCCCN)NC(=O)[C@H](CO)NC(=O)[C@H](Cc1ccc(O)cc1)NC(=O)[C@H](CC(=O)O)NC(=O)[C@H](CO)NC(=O)[C@@H](NC(=O)[C@H](Cc1ccccc1)NC(=O)[C@@H](NC(=O)CNC(=O)[C@H](CCC(N)=O)NC(=O)[C@H](CO)NC(=O)[C@@H](N)Cc1c[nH]cn1)[C@@H](C)O)[C@@H](C)O)C(=O)N[C@@H](CC(=O)O)C(=O)N[C@@H](CO)C(=O)N[C@@H](CCC(N)=O)C(=O)N[C@@H](CCCNC(=N)N)C(=O)N[C@@H](C)C(=O)N[C@@H](CCC(N)=O)C(=O)N[C@@H](CC(=O)O)C(=O)N[C@@H](Cc1ccccc1)C(=O)N[C@H](C(=O)N[C@@H](CCCCNC(=O)COCCOCCNC(=O)COCCOCCNC(=O)CC[C@H](NC(=O)CCCCCCCCCCCCCCCCC(=O)O)C(=O)O)C(=O)N[C@@H](Cc1c[nH]c2ccccc12)C(=O)N[C@@H](CC(C)C)C(=O)N[C@H](C(=O)N[C@@H](CCCCN)C(=O)N[C@H](C(=O)NCC(=O)N1CCC[C@H]1C(N)=O)[C@@H](C)O)C(C)C)C(C)C

- Assay (I) Glucagon [EC50]: 0.019 nM
Binder: HSQGTFTSDYSKYLDSKKAQEFVK([AEEA-AEEA-γGlu-C18 diacid])WLLNT

- Assay (I) Glucagon [EC50]: 0.048 nM
B4: N^ε24-([2-[2-[2-[[2-[2-[2-[[(4S)-5-hydroxy-4-[(18-hydroxy-18-oxooctadecanoyl)amino]-5-oxopentanoyl]amino]ethoxy]ethoxy]acetyl]amino]ethoxy]ethoxy]acetyl])[Glu^1 … (peptide)
peptide: HSQGTFTSDYSKYLDEKAAQEFVK([AEEA-AEEA-γGlu-C18 diacid])WLLNT-NH2
modifications: N-terminus assumed
SMILES: CC(C)C[C@H](NC(=O)[C@H](Cc1ccc(O)cc1)NC(=O)[C@H](CCCCN)NC(=O)[C@H](CO)NC(=O)[C@H](Cc1ccc(O)cc1)NC(=O)[C@H](CC(=O)O)NC(=O)[C@H](CO)NC(=O)[C@@H](NC(=O)[C@H](Cc1ccccc1)NC(=O)[C@@H](NC(=O)CNC(=O)[C@H](CCC(N)=O)NC(=O)[C@H](CO)NC(=O)[C@@H](N)Cc1c[nH]cn1)[C@@H](C)O)[C@@H](C)O)C(=O)N[C@@H](CC(=O)O)C(=O)N[C@@H](CCC(=O)O)C(=O)N[C@@H](CCCCN)C(=O)N[C@@H](C)C(=O)N[C@@H](C)C(=O)N[C@@H](CCC(N)=O)C(=O)N[C@@H](CCC(=O)O)C(=O)N[C@@H](Cc1ccccc1)C(=O)N[C@H](C(=O)N[C@@H](CCCCNC(=O)COCCOCCNC(=O)COCCOCCNC(=O)CC[C@H](NC(=O)CCCCCCCCCCCCCCCCC(=O)O)C(=O)O)C(=O)N[C@@H](Cc1c[nH]c2ccccc12)C(=O)N[C@@H](CC(C)C)C(=O)N[C@@H](CC(C)C)C(=O)N[C@@H](CC(N)=O)C(=O)N[C@H](C(N)=O)[C@@H](C)O)C(C)C

- Assay (I) Glucagon [EC50]: 0.0235 nM
B5: N^ε24-([2-[2-[2-[[2-[2-[2-[[(4S)-5-hydroxy-4-[(18-hydroxy-18-oxooctadecanoyl)amino]-5-oxopentanoyl]amino]ethoxy]ethoxy]acetyl]amino]ethoxy]ethoxy]acetyl])[Glu^1 … (peptide)
peptide: HSQGTFTSDYSKYLDERRAQDFVK([AEEA-AEEA-γGlu-C18 diacid])WLLAT-NH2
modifications: N-terminus assumed
SMILES: CC(C)C[C@H](NC(=O)[C@H](CC(C)C)NC(=O)[C@H](Cc1c[nH]c2ccccc12)NC(=O)[C@H](CCCCNC(=O)COCCOCCNC(=O)COCCOCCNC(=O)CC[C@H](NC(=O)CCCCCCCCCCCCCCCCC(=O)O)C(=O)O)NC(=O)[C@@H](NC(=O)[C@H](Cc1ccccc1)NC(=O)[C@H](CC(=O)O)NC(=O)[C@H](CCC(N)=O)NC(=O)[C@H](C)NC(=O)[C@H](CCCNC(=N)N)NC(=O)[C@H](CCCNC(=N)N)NC(=O)[C@H](CCC(=O)O)NC(=O)[C@H](CC(=O)O)NC(=O)[C@H](CC(C)C)NC(=O)[C@H](Cc1ccc(O)cc1)NC(=O)[C@H](CCCCN)NC(=O)[C@H](CO)NC(=O)[C@H](Cc1ccc(O)cc1)NC(=O)[C@H](CC(=O)O)NC(=O)[C@H](CO)NC(=O)[C@@H](NC(=O)[C@H](Cc1ccccc1)NC(=O)[C@@H](NC(=O)CNC(=O)[C@H](CCC(N)=O)NC(=O)[C@H](CO)NC(=O)[C@@H](N)Cc1c[nH]cn1)[C@@H](C)O)[C@@H](C)O)C(C)C)C(=O)N[C@@H](C)C(=O)N[C@H](C(N)=O)[C@@H](C)O

- Assay (I) Glucagon [EC50]: 0.015 nM
B6: N^ε24-([2-[2-[2-[[2-[2-[2-[[(4S)-5-hydroxy-4-[(18-hydroxy-18-oxooctadecanoyl)amino]-5-oxopentanoyl]amino]ethoxy]ethoxy]acetyl]amino]ethoxy]ethoxy]acetyl])[Glu^1 … (peptide)
peptide: HSQGTFTSDYSKYLDEKRAQEFVK([AEEA-AEEA-γGlu-C18 diacid])WLLNT-NH2
modifications: N-terminus assumed
SMILES: CC(C)C[C@H](NC(=O)[C@H](Cc1ccc(O)cc1)NC(=O)[C@H](CCCCN)NC(=O)[C@H](CO)NC(=O)[C@H](Cc1ccc(O)cc1)NC(=O)[C@H](CC(=O)O)NC(=O)[C@H](CO)NC(=O)[C@@H](NC(=O)[C@H](Cc1ccccc1)NC(=O)[C@@H](NC(=O)CNC(=O)[C@H](CCC(N)=O)NC(=O)[C@H](CO)NC(=O)[C@@H](N)Cc1c[nH]cn1)[C@@H](C)O)[C@@H](C)O)C(=O)N[C@@H](CC(=O)O)C(=O)N[C@@H](CCC(=O)O)C(=O)N[C@@H](CCCCN)C(=O)N[C@@H](CCCNC(=N)N)C(=O)N[C@@H](C)C(=O)N[C@@H](CCC(N)=O)C(=O)N[C@@H](CCC(=O)O)C(=O)N[C@@H](Cc1ccccc1)C(=O)N[C@H](C(=O)N[C@@H](CCCCNC(=O)COCCOCCNC(=O)COCCOCCNC(=O)CC[C@H](NC(=O)CCCCCCCCCCCCCCCCC(=O)O)C(=O)O)C(=O)N[C@@H](Cc1c[nH]c2ccccc12)C(=O)N[C@@H](CC(C)C)C(=O)N[C@@H](CC(C)C)C(=O)N[C@@H](CC(N)=O)C(=O)N[C@H](C(N)=O)[C@@H](C)O)C(C)C

- Assay (I) Glucagon [EC50]: 0.018 nM
B7: N^ε16-([2-[2-[2-[[2-[2-[2-[[(4S)-5-hydroxy-4-[(18-hydroxy-18-oxooctadecanoyl)amino]-5-oxopentanoyl]amino]ethoxy]ethoxy]acetyl]amino]ethoxy]ethoxy]acetyl])[Lys^1 … (peptide)
peptide: HSQGTFTSDYSKYLDK([AEEA-AEEA-γGlu-C18 diacid])KRAQEFVQWLLNT-NH2
modifications: N-terminus assumed
SMILES: CC(C)C[C@H](NC(=O)[C@H](Cc1ccc(O)cc1)NC(=O)[C@H](CCCCN)NC(=O)[C@H](CO)NC(=O)[C@H](Cc1ccc(O)cc1)NC(=O)[C@H](CC(=O)O)NC(=O)[C@H](CO)NC(=O)[C@@H](NC(=O)[C@H](Cc1ccccc1)NC(=O)[C@@H](NC(=O)CNC(=O)[C@H](CCC(N)=O)NC(=O)[C@H](CO)NC(=O)[C@@H](N)Cc1c[nH]cn1)[C@@H](C)O)[C@@H](C)O)C(=O)N[C@@H](CC(=O)O)C(=O)N[C@@H](CCCCNC(=O)COCCOCCNC(=O)COCCOCCNC(=O)CC[C@H](NC(=O)CCCCCCCCCCCCCCCCC(=O)O)C(=O)O)C(=O)N[C@@H](CCCCN)C(=O)N[C@@H](CCCNC(=N)N)C(=O)N[C@@H](C)C(=O)N[C@@H](CCC(N)=O)C(=O)N[C@@H](CCC(=O)O)C(=O)N[C@@H](Cc1ccccc1)C(=O)N[C@H](C(=O)N[C@@H](CCC(N)=O)C(=O)N[C@@H](Cc1c[nH]c2ccccc12)C(=O)N[C@@H](CC(C)C)C(=O)N[C@@H](CC(C)C)C(=O)N[C@@H](CC(N)=O)C(=O)N[C@H](C(N)=O)[C@@H](C)O)C(C)C

- Assay (I) Glucagon [EC50]: 0.016 nM
B8: N^[24-([2-[2-[2-[[2-[2-[2-[[(4S)-5-hydroxy-4-[(18-hydroxy-18-oxooctadecanoyl)amino]-5-oxopentanoyl]amino]ethoxy]ethoxy]acetyl]amino]ethoxy]ethoxy]acetyl])[Lys^1 … (peptide)
peptide: HSQGTFTSDYSKYLDSKRAQEFVK([AEEA-AEEA-γGlu-C18 diacid])WLLNT-NH2
modifications: N-terminus assumed
SMILES: CC(C)C[C@H](NC(=O)[C@H](Cc1ccc(O)cc1)NC(=O)[C@H](CCCCN)NC(=O)[C@H](CO)NC(=O)[C@H](Cc1ccc(O)cc1)NC(=O)[C@H](CC(=O)O)NC(=O)[C@H](CO)NC(=O)[C@@H](NC(=O)[C@H](Cc1ccccc1)NC(=O)[C@@H](NC(=O)CNC(=O)[C@H](CCC(N)=O)NC(=O)[C@H](CO)NC(=O)[C@@H](N)Cc1c[nH]cn1)[C@@H](C)O)[C@@H](C)O)C(=O)N[C@@H](CC(=O)O)C(=O)N[C@@H](CO)C(=O)N[C@@H](CCCCN)C(=O)N[C@@H](CCCNC(=N)N)C(=O)N[C@@H](C)C(=O)N[C@@H](CCC(N)=O)C(=O)N[C@@H](CCC(=O)O)C(=O)N[C@@H](Cc1ccccc1)C(=O)N[C@H](C(=O)N[C@@H](CCCCNC(=O)COCCOCCNC(=O)COCCOCCNC(=O)CC[C@H](NC(=O)CCCCCCCCCCCCCCCCC(=O)O)C(=O)O)C(=O)N[C@@H](Cc1c[nH]c2ccccc12)C(=O)N[C@@H](CC(C)C)C(=O)N[C@@H](CC(C)C)C(=O)N[C@@H](CC(N)=O)C(=O)N[C@H](C(N)=O)[C@@H](C)O)C(C)C

From US20130143798A1 (Novo Nordisk, published 2013)
